Laboratory results: publication PMC4004541, “PEG-Like Nanoprobes: Multimodal, Pharmacokinetically and Optically Tunable Nanomaterials” (PLoS ONE, 2014)

Legend:
[1] = Quantum yield of fluorochrome-bearing peptides and PN's; type: physicochemical; details: means±1 S.D.
Text: (The p values showing significances are in Figure S2 in File S1). […] PEG attachment increased quantum yields in all cases, but as discussed below the magnitude of PEG generated improvement varied with the fluorochrome chosen. A mechanism for the PEG improvement of quantum yield is fluorochrome shielding, or the blocking of fluorochrome-fluorochrome interactions that result in quenching.
However, the magnitude of these benefits varied with the fluorochrome selected. […] Previous studies indicated PEGylated, fluorochrome-bearing peptides have absorption spectra in PBS similar to their unstacked absorption spectra in methanol. […] It appears that longer wavelength fluorochromes have stronger fluorochrome/fluorochrome stacking interactions, which result in more quenching, which is blocked by PEG and which gives rise to larger increases in quantum yield.

HT-29 cells = assay: Non-specific binding (NSB) to HT-29 cells by FACS; type: cell-based, human; details: 100 μL of nanoprobes (2 μM) added to 100 μl 2% FBS/DPBS, 30 min at 37 °C, means±1 S.D.
Text: We next examined the non-specific binding (NSB) of PN’s to HT-29 cells based on the assumption that NSB minimization will correlate with a desirable minimization of post-IV injection retention. As noted above, after diagnostic drugs generate their added information, retention can only increase the risks of delayed toxicity. The attachment of PEG decreased the non-specific binding (NSB) to HT-29 cells, scored as the percent of cells above the cutoff for unstained cells seen with FACS ( Table 1 , column 7).
PN and peptide binding to cells (effect of PEGylation on NSB): HT-29, a human colon carcinoma cell line, was from the American Tissue Culture Collection and maintained according to their instructions. Cells were seeded on 24-well plates at 5X10^5 cells/well in culture medium (RPMI 1640 with 10% FBS) the day before the assay. The day of assay, medium was removed, wells rinsed twice with DPBS (+Ca, +Mg), and 100 μl of 2% FBS / DPBS (+Ca, +Mg) added. 100 μL of Nanoprobes (2 μM) in DPBS (+Ca, +Mg) was added to cells and incubated for 30min at 37 °C. (Probe concentrations were determined spectrophotometrically (783 nm, extinction coefficient of 314 471 cm^-1 M^-1 for IR-783; 497 nm, extinction coefficient of 68 000 cm^-1 M^-1 for Fluorescein; 545 nm, extinction coefficient of 150 000 cm^-1 M^-1 for Cy3). Cells were detached by Trypsin/EDTA and assayed for fluorescence by FACS (BD 7 laser LSR2 for nanoprobes with IR-783; BD 3 laser LSR2 for nanoprobes with Fluorescein or Cy3).
Figure S4: Effect of PEGylation on non-specific binding to cells by single channel FACS. […] Arrows indicates the cutoff for unstained cells.

[2] = Size by dynamic light scattering; type: physicochemical; details: Nano-ZS Zetasizer, z-average
Text: (§1) FPLC chromatograms are shown for PN’s bearing the IR-783 fluorochrome with PEG’s ranging from 2 to 40 kDa ( Figure 2A ). FPLC was calibrated with globular protein standards, and globular protein equivalent molecular volumes (in kDa) were obtained ( Table 1 , column 5). Next, these globular protein equivalent molecular volumes were converted to PN diameters in nm using the relationship: [drawing 1] where M is the molecular weight of a globular protein expressed in daltons. PN diameters ranged from 3.0 to 11.7 nm, which means PN’s can be smaller or larger than albumin (MW = 67 kDa; diameter = 5.4 nm, by the formula above). Thus Table 1 column 5 gives the PN volumes obtained from FPLC expressed in two ways: (i) as the molecular weight in kDa of globular proteins with equivalent volumes, permitting size comparison of PN’s to proteins, and, (ii) as spherical diameters (“Dia.”) in nm, permitting size comparisons of a PN to relative to other nanomaterials. We confirmed the sizes obtained with FPLC by measuring the size of PN(783)11.7 by dynamic light scattering (11.7 nm).
Size by dynamic light scattering: Size was obtained on a Nano-ZS Zetasizer (Malvern, Medford, MA) and is expressed as the z-average.

[3] = Probe size (volume) by FPLC calibrated with globular protein standards; type: physicochemical; details: for Volume FPLC, globular protein equivalent molecular volume: Superdex 200 10/300GL, 0.05 M sodium phosphate, 0.1 M NaCl (0.1% Tween, pH 7.2), 0.8 ml/min, calibrated with globular protein standards; for Volume FPLC Dia. (diameter): globular protein equivalent volume from FPLC converted to spherical diameter by formula (ref 15)
Text: as §1
The mass spec of low molecular weight (MW) materials were obtained by MS-ESI Micromass (Waters) and high MW molecules were determined through MALDI-TOF analyses at the Tufts University Core Facility. RP-HPLC (Varian ProStar detector and delivery modules) employed an eluant A (0.1% TFA/water) and eluant B (0.1% TFA and 9.9% water in acetonitrile). Probe size (volume) was determined by FPLC using an ÄKTA Purifier 10 and SuperdexTM 200 10/300GL column (GE Healthcare) with a running buffer of 0.05 M sodium phosphate, 0.1 M NaCl (0.1% Tween, pH 7.2) and flow rate of 0.8 ml/min. Standards (GE Healthcare) were Ferritin, Ribonuclease A, Carbonic Anhydrase, and Conalbumin and Blue Dextran 2000. To obtain probe volumes, Mr (apparent molecular weight based on size exclusion retention) was plotted versus Kav. [drawing 7] , Vt = total volume, Ve = elution volume, Vo = void volume.
PN and peptide characterization: The mass spec of low molecular weights (MW) were obtained by MS-ESI Micromass (Waters) and high MW molecules were determined through MALDI-TOF analyses at the Tufts University Core Facility. RP-HPLC (Varian ProStar detector and delivery modules) employed an eluant A (0.1% TFA /water) and eluant B (0.1% TFA and 9.9% water in acetonitrile). […] Standards (GE Healthcare) were Ferritin, Ribonuclease A, Carbonic Anhydrase, and Conalbumin and Blue Dextran 2000. To obtain probe volumes, Mr (apparent molecular weight based on size exclusion retention) was plotted versus Kav. [picture] , Vt = total volume, Ve = elution volume, Vo = void volume.

[4] = Elimination by whole animal surface fluorescence imaging; type: in vivo; details: mice, after injection, n = 6
Procedure: Surface fluorescence images for representative animals are shown and total surface fluorescence is quantified in bar graphs to the right of the image. […] The pharmacokinetics and biodistributions of these PN’s is further analyzed below.
Figure 3 Role PEG in determining elimination by surface fluorescence imaging. A) Animals were injected with unPEGylated peptide and imaged at the times indicated. Bar graph gives whole animal surface fluorescence determined as means and standard deviations, n = 6.
(§2) A Kodak FX multispectral imaging system was used (Carestream Molecular Imaging, Rochester, NY). Excitation at multiple wavelengths (620, 650, 690, 710, 720, 730, 750 and 760 nm) with the emission at 830 nm was setup for IR-783 spectrum; Excitation at multiple wavelengths (420, 440, 460, 480, 510, 520, 530, and 540 nm) with the emission at 600 nm was setup for Cy3 spectrum; Excitation at multiple wavelengths (450, 470, 510, 520, 530, 540, 550, 570, and 590 nm) with the emission at 700 nm was setup for mCherry; with manufacturer’s software to separate (unmix) the IR-783 spectrum, Cy3 spectrum, or mCherry spectrum from skin autofluorescence and chlorophyll fluorescence from food. X-ray images were taken after fluorescence images. […]
as §2, with “Whole animal surface fluorescence imaging: All animal experiments in this work were approved by the Institutional Review Committee of the Massachusetts General Hospital. […]” for “A Kodak FX multispectral imaging system was used (Carestream Molecular Imaging, Rochester, NY).”

[5] = Circulating form of PN's: FPLC of sera of injected mice; type: in vivo; details: 20 nmoles IV tail vein, nude mice, FPLC at 783 nm
Procedure: To see if the variable PN size could be translated into tunable pharmacokinetics, it was essential to first establish that PN’s circulated at PEG-determined, pre-injection dimensions. Mice were injected with PN’s and FPLC chromatograms of serum samples, taken at various times post injection ( Figures 2D, 2E and 2F ), compared with pre-injection PN samples. By using PN’s absorbing at 783 nm, chromatograms from the sera of injected mice reflect this PN, since there are no compounds in serum that absorb at this wavelength. […] Similarly, peaks for PN(783)6.1 ( Figure 2E ) and PN(783)4.3 ( Figure 2F ) where identical for pre-injection samples and for nanoprobes in the sera of injected mice. Thus, molecular weight of the PEG chosen determines PN dimensions in vitro and those dimensions are maintained after injection.
(§3) At the indicated time, 50 µl of blood was collected with microhematocrit capillary tube (Fisher Scientific) from the tail, and transferred to Eppendorf microcentrifuge tube with anticoagulant (EDTA) coating (Fisher Scientific). Tubes were centrifuged (5000 rpm for 5 min), and the supernatant was injected to the FPLC, a ÄKTA Purifier 10 with SuperdexTM 200 10/300GL column.
as §3, with “μl” for “µl”

Substance | Quant. Yield [1] | Cell NSB: percent of HT-29 cells above the cutoff for unstained cells (HT-29 cells) [%] | Size by dynamic light scattering [2] [nm] | Volume FPLC, globular protein equivalent molecular volume [3] [kDa] | Volume FPLC Dia. (diameter) [3] [nm] | Elimination seen by whole animal surface fluorescence [4] | Circulating size: FPLC peaks of serum samples after injection versus pre-injection sample [5]
(DOTA)Lys-Cys(Fl) [unPEGylated DOTA peptide with fluorescein on the cysteine side chain] | 0.50±0.11 | 0.4±0.1 |  |  |  |  | 
(DOTA)Lys(PEG40 kDa)-Cys(IR-783) [PN(783)11.7, PEG-like Nanoprobe: 40 kDa PEG, IR-783 fluorochrome, DOTA peptide] | 0.16±0.02 | 17±1 | 11.7 | 690 | 11.7 |  | 
(DOTA)Lys-Cys(IR-783) [unPEGylated DOTA peptide with IR-783 fluorochrome on the cysteine side chain] | 0.053±0.008 | 95±1 |  |  |  | slow and incomplete elimination | 
(DOTA)Lys(PEG 2 kDa)-Cys(IR-783) [PN(783)3.0, PEG-like Nanoprobe: 2 kDa PEG, IR-783 fluorochrome, DOTA peptide] | 0.13±0.02 | 50±1 |  | 11.2 | 3.0 |  | 
(DOTA)Lys(PEG 20 kDa)-Cys(IR 783) [PN(783)8.4, PEG-like Nanoprobe: 20 kDa PEG, IR-783 fluorochrome, DOTA peptide] | 0.16±0.04 | 14±1 |  | 262.5 | 8.4 |  | 
(DOTA)Lys(PEG 10 kDa)-Cys(IR-783) [PN(783)6.1, PEG-like Nanoprobe: 10 kDa PEG, IR-783 fluorochrome, DOTA peptide] | 0.16±0.03 | 14±1 |  | 100.7 | 6.1 |  | identical
(DOTA)Lys(PEG 5 kDa)-Cys(Cy3) [PN(545)4.3, PEG-like Nanoprobe: 5 kDa PEG, Cy3 fluorochrome, DOTA peptide] | 0.59±0.09 | 31±1 |  | 35 | 4.3 |  | 
(DOTA)Lys(PEG 5 kDa)-Cys(Fl) [PN(497)4.3, PEG-like Nanoprobe: 5 kDa PEG, fluorescein, DOTA peptide] | 0.59±0.06 | 0.2±0.1 |  | 35 | 4.3 |  | 
(DOTA)Lys(PEG 30 kDa)-Cys(Cy3) [PN(545)10.0, PEG-like Nanoprobe: 30 kDa PEG, Cy3 fluorochrome, DOTA peptide] | 0.61±0.10 | 15±1 |  | 435 | 10.0 |  | 
(DOTA)Lys-Cys(Cy3) [unPEGylated DOTA peptide with Cy3 fluorochrome on the cysteine side chain] | 0.32±0.07 | 98±1 |  |  |  |  | 
